The DeepSol protein solubility set

Assay: soluble on expression in E. coli; label from the status in PepcDB or PDB records

Sequence | soluble on expression in E. coli
MKDYRYALPAMMSVRKGESRYFNRGDQHLMNEILARVRAEGKIRLRDIDKKNKESLGNWWNTGPGRRAFEQLYMQGDLMICERNGMEKVYDLTERCLPENIDLSLPTLYEYAQYLFNNTLRAHGAFTWKQLVHLKKNDLKETMRVVLKEQIDAGVVSAIKLADGQNLYVDVTAIEQQLDTDFGLKILSPFDNSLIHRDRLTSLFEFDYRIECYLPAAKRVFGYFCLPILYQNELVGRIDCKAHRTVKELEVISLHLEKTVKDKEHFFFELDQELKRFAAFNQCSTVNDKVVKLIRSKLLEHHHHHH | not soluble
MNLRPVIVGGGSAGMAAAIELARRGVPCVLFDEASRPGGVVYRGPLRAGVDPAYLGARYTRMLEKLRRDFSACAGHIDLRLNSRVVGGDGQRLMVLDEAERLHEVEYSHLLLATGCHERSVPFPGWTLPGVMLLGGLQLQIKSGVVKPLGDTLIAGSGPLLPLVACQLHAAGVRVAGVYEACAFGRMARESLALLNKPQLFLDGLSMLGYLKLNGIPLHYGWGVVEASGDGELTEVTVAPYDEEWRPDLENARPVKASTLAVGYGFIPRTQLSQQLGLEHGFSDDGYLRAECNVWQQSSQPHIHLAGDMAGIRGGEAAMIGGRIAALSILLQREAIAPAEAIERRESHLARLEAIKRFRAGVERYTQRGARQVELARADTVICRCEQVTRGDIERALEQGVQDIAGLKMRTRAGMGDCQGRMCIGYCSDRLRRATGRHDVGWLRPRFPIDPIPFSAFQNLGTEALEHHHHHH | not soluble
MRLEIAEKYMAEAYEYLKKGDTIQASGKAYKVAEEIVKAIKFLISKLIGQDVGVISPYRTQVRKLDQELANYKPYVEVNTVDAFQGREKDVIIFSVTATNGLRFVTNRRRLNVAFTRPRYKLIVLGNENSIMSCQMTIC | soluble
MARDRNLFKMLVNRLLDRLARLPVGAELGSEGELAAELQASRTTVRAVLTHLAEAGLLSWEGRRKVVLRAPSPSDRFDEGETRPRQELVEEPFLAWVLQGDLPPGTLLHESDLARRLGVPVATVREFLIRFEPFGLIEKQPNRHWVLKGFTRAFAEEMFAVREMFERHALRGLLAATAPGGPLRADLESLRAEHEALSAGPEEELTAFPALDARFHRLLCRAAHNRFILDFSRTISIIVHFHYRWNKRDELRRNRAALNEHLAIVEAVLAGDAPRAAAALDAHLATAYRTLMTSVTWADA | not soluble
MSHSAKKALLPLLAVATLAGLAGCATETSTALPVQQVESVNRPYSGVRSPIAVGKFDNRSSYMRGIFSDGVDRLGGQAKTILITHLQQTNRFNVLDRDNMSEIQQEAAIKGQAQRLKGADYVVTGDVTEFGRKEVGDRQLFGILGRGKSQIAYAKVALNIVNISTSEVVYSTQGAGEYALSNREVIGFGGTASYDSTLNGKVLDLAMREAVNKLVNAVDSGAWKPQNQ | not soluble
MKTIRLTTAQALVKFLNQQYVEFDGHIQKFVKGIFTIFGHGNVLGLGQALEEDPGELEVYQGRNEQGMAHAAIAFAKQKHRRQIMACTSSVGPGAANMVTAAATASANHIPVLLLPGDTFATRQPDPVLQQIEHWHDLTVSTNDAFRAVSKYWDRISRPEQLMSAMIQAMRVLTDPANTGAVTIALPQDVQGEAYDFPESFFQKRIHRIERRVPAKAAIHEAVELIRRKKKPIIICGGGVRYSEAAEELKQFAEKFHIPYGETQAGKSAVESAHPYNLGGIGVTGNLAANIIAKEADLVIGIGTRYTDFTTGSKQLFQHPEVEFLTINVSVFDACKLDAVRVVADAKLALLALTEELEKIGYRSGYTNEIDIAKKAWEEELNRLHHVRYRQSGFQPEVAGHLDEVLTEYSEFFDSSLTQTEVIGAINEWIDDDAIIIGAAGSLPGDLQRMWVARRPNTYHMEYGYSCMGYEIAGALGVKMAEPDKEVYAMVGDGSYLMLHSELVTSIQEKKKINVLLFDNGGFGCINNLQMGHGMGSFATEFRYRNEETGRLDGSLIPIDFAQSAAGYGVKTYKVHTLEQLKEALEDAKQQSVSTLIDIKVLPKTMTHDYESWWHVGVAEVSRNPKIAEAYKRKEQQLQRARKY | soluble
MEVHAADQYLVAPGEADLLEVHARLAGTGLFPPFPPVELPGGVGGLVARGGFAQTFFFPAEVLGLTFRTPKGRRVRAGGVVVKNVQGYDLVRLFVGSFGLLGRAEEVVLRLRPGRAQAFLRRPFSGSFPRLVPTPRFLFALEDEEGPWLYAYHFGHPKEVERFREAFGGEEARPLDLRPRFPRGLGLGEGPLWDLRFRYQDGGASPPPPPAFLRLARVL | soluble
MSDDESIFVPDENSAQVSAETTVKCYRTDSASSQKVINNLEKFVLNQSLDKSYKKIASDGIASSKRTLESLLARNGGHQNLLNEEVNKLNNKNYTLDADGRVCLVKNSSNDTSRHQELILLQKDTHELRCLREYLMLALEAIMHNHRQMMVKHVQNVRERPRQVSQAAIDNAIVSSAFGLFIEAFYSFLFQEKANTRIIDEFAQMTLFVDQSIAREEIRSENRRKLKKTIEIETFLMRMMLEMEDIREANVKDLVSLWRSHQRSAKTQPTNNNAAGDSTN | not soluble
MSSTPQFLRWYEQNKPVPYRSVLQEKFEPGQTLIVKGSTIDESQRFTINLHSKTADFSGNDVPLHVSVRFDEGKIVLNSFSNGEWGKEERKSNPIKKGDSFDIRIRAHDDRFQIIVDHKEFKDYEHRLPLSSISHLSIDGDLYLNHVHWGGKYYPVPYESGLANGLPVGKSLLVFGTVEKKAKRFHVNLLRKNGDISFHFNPRFDEKHVIRNSLAANEWGNEEREGKNPFEKGVGFDLVIQNEEYAFQVFVNGERYISFAHRADPHDIAGLQISGDIELSGIQIQ | not soluble
SSRGSGILPDEFMFAEFKRQCLSTENWVNKYDKNDMEVWVEQAPLSASINNKGNYSKVHKIRCQINIKDVSAATMYDVLHDGQYRKTWDPTMLESFDIARLAHNADVGYYSWICPKPLKNRDVVTLRSWQASENEYVIINFSVKHPKYPPRKDLVRAVSLMTGYLIKPTGPQSCTFTYLSQADPKGSLPKWVVNKASQVLAPKVLRSAHKAGQNYPAWKAANSPDHKPWLYPIQSELAMMDPAELSIQRGDSLENVDESSTRDAQENEDSS | soluble
MAELLLGVNIDHIATLRNARGTDYPDPVQAAFIAEQAGADGITVHLREDRRHITDRDVRILRQTLHTRMNLEMAVTEEMLAIAVETRPHFCCLVPEKRQEVTTEGGLDVAGQRDKMRDACARLAAAGIQVSLFIDADETQINAAAEVGAPFIEIHTGCYANAETDAEQAKELARIASAATLAARLGLKVNAGHGLTYHNVKAIAALPEMHELNIGHAIIGRAVMTGLKEAVAEMKRLMLEARG | not soluble
MKFTVGIAMNPLDQLPALARTAEECGFSSIALPDSLFFMEKQSADYPYTPDGSRMWNEETPWVDPLIAAAAMGAVTSKIEFYTQVLKLGSRNPVLLARQVGSVANLIGNRFGFGVGIGWAPEEFEWCGVPYKKRGARVDEMIDVIKLILGGGMVEYHGEFFDFDRLQMSPAPTKPVPFYVGGHTDVALRRAARVGDGWTSAMIKFDDLVQVIARLRELREEYGRADLPYEIQTVCIDRFGKDGYAELADAGVTDTIVVPWVFDGIGFDGPLEAKQDSLRKFADQYIG | not soluble
MGSDKIHHHHHHMRYVILARNLDSKAGGISVYGRNLIKKLEAKGIDVIISPKEKFSYFKWLLFDVPIFILKTDADVYHAIGIIEGILLPFIKPRAKKYLTVHDLIPLKYKGRGFRKILERFLVRLGLFSARFYDKIFAVSHLTKLDVIRFGGIDENKIEVVYQPIDDKFLKTPTSGKRHKTFNIGYISRMEAYKRHELLIKLFMKYKNPNARLYLAGTGPLFKKIQKLAEEDKRIILLGFVPDDKIVEFYDMLDVYIHPSKYEGWGLPIVEATARKKPVIIFEDAEIPREVKYLCLSIDFNIINPLISNLKYLKKVGVIKNKAWRRIYENSICH | not soluble
MDLLFGRRKTPEELLRQNQRALNRAMRELDRERQKLETQEKKIIADIKKMAKQGQMDAVRIMAKDLVRTRRYVRKFVLMRANIQAVSLKIQTLKSNNSMAQAMKGVTKAMGTMNRQLKLPQIQKIMMEFERQAEIMDMKEEMMNDAIDDAMGDEEDEEESDAVVSQVLDELGLSLTDELSNLPSTGGSLSVAAGGKKAEAAASALADADADLEERLKNLRRD | soluble
MNHLGKTEVFLNRFALRPLNPEELRPWRLEVVLDPPPGREEVYPLLAQVARRAGGVTVRMGDGLASWSPPEVLVLEGTLARMGQTYAYRLYPKGRRPLDPKDPGERSVLSALARRLLQERLRRLEGVWVEGLAVYRREHARGPGWRVLGGAVLDLWVSDSGAFLLEVDPAYRILCEMSLEAWLAQGHPLPKRVRNAYDRRTWELLRLGEEDPKELPLPGGLSLLDYHASKGRLQGREGGRVAWVADPKDPRKPIPHLTGLLVPVLTLEDLHEEEGSLALSLPWEERRRRTREIASWIGRRLGLGTPEAVRAQAYRLSIPKLMGRRAVSKPADALRVGFYRAQETALALLRLDGAQGWPEFLRRALLRAFGASGASLRLHTLHAHPSQGLAFREALRKAKEEGVQAVLVLTPPMAWEDRNRLKALLLREGLPSQILNVPLREEERHRWENALLGLLAKAGLQVVALSGAYPAELAVGFDAGGRESFRFGGAACAVGGDGGHLLWTLPEAQAGERIPQEVVWDLLEETLWAFRRKAGRLPSRVLLLRNGRVPQDEFALALEALAREGIAYDLVSVRKSGGGRVYPVQGRLADGLYVPLEDKTFLLLTVHRDFRGTPRPLKLVHEAGDTPLEALAHQIFHLTRLYPASGFAFPRLPAPLHLADRLVKEVGRLGIRHLKEVDREKLFFV | soluble
MSLKEAIVERIVNKLNENQKEKIGVELPSGKRIPEFPVSHLIRFKTWKSLDYVLKDPEMGFGEGYMNGDIEVEGDLEEVIKRGMTLFKDTRKFEKLFGILRHVPLFRTIRDERNVKHHYDLGNDFYRLWLDKSMTYSCAFFEDPSMSIDEAQSLKRRIIYEKLQLKEGDTLLDIGCGWGSIILESAELYNVKSVGITLSDNQYEYVKEEIKKRGLQDKVEVYKLHYVDLPKLGRKFNKVVSVGMFEHVGKENYETFFNTVYKVMEEGGLFLLHTIGKLHPDTQSRWIRKYIFPGGYLPSISEIVESFRDMDFTLIDFDNWRMHYYWTLKKWKERFYENLDKIRNMFDDRFIRMWELYLTASAVSFLIGSNYVFQILLSKGVKDDYPVIKREFSGVLFKEGHHHHHH | not soluble
MSLEFFMAKADNPAFEQGQSPRMRLPDSVPLLIVGGGIMGLWAAVKAERLGIGTLLVEAGRLGGGASGGLLGALMPHMPDRWSDKKQFQFDALVALEAEIAGLEAETGLSGGYRRCGRIIPLPKPHLRGIAERHERDAAENWRSGERRFQWHVGERPSVAGWVDDAAGEAGFVFDTLAARVSPRALIALLSAFLRKARHVQVAEGCRVVSLDADAGRAALSSGEEISFGHVVVANGHESFPLIRDALGLEAGVALGQAVKGQAALLDASADPAMPVVFLNGLYIVPHEDGTVAIGSTSEDCFSEPFSTDEKLEKLLVDACTVVPSLAGAPVLERWAGLRPKAVGRDPMVGAMAGTAKLVALSGGFKVSFGLAHFLADAALETVCGHTPVIPSGFRLQEHVSIAVPDFRKFLEHHHHHH | not soluble
MEAPEFKDFAKTMVDFIAEYLENIRERRVLPEVKPGYLKPLIPDAAPEKPEKWQDVMQDIERVIMPGVTHWHSPKFHAYFPTANSYPAIVADMLSGAIACIGFTWIASPACTELEVVMMDWLGKMLELPAEFLACSGGKGGGVIQGTASESTLVALLGAKAKKLKEVKELHPEWDEHTILGKLVGYCSDQAHSSVERAGLLGGVKLRSVQSENHRMRGAALEKAIEQDVAEGLIPFYAVVTLGTTNSCAFDYLDECGPVGNKHNLWIHVDAAYAGSAFICPEYRHLMKGIESADSFNFNPHKWMLVNFDCSAMWLKDPSWVVNAFNVDPLYLKHDMQGSAPDYRHWQIPLGRRFRALKLWFVLRLYGVENLQAHIRRHCNFAKQFGDLCVADSRFELAAEINMGLVCFRLKGSNERNEALLKRINGRGHIHLVPAKIKDVYFLRMAICSRFTQSEDMEYSWKEVSAAADEMEQEQ | soluble
